Reference: a protein production outcome set (Wang et al. 2014)

Assay: label from the status in PepcDB records
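Note: failed if final PepcDB status was selected cloned or expressed and not failed if soluble or beyond.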

| Sequence | protein production |
| --- | --- |
| MAQKLEAKGGEMGDVWDDGVYENVRKVYVGQAQYGIAFVKFEYVNGSQVVVGDEHGKKTELGVEEFEIDADDYIVYVEGYREKVNDMTSEMITFLSIKTFKGKTSHPIEKRPGVKFVLHGGKIVGFHGRSTDVLHSLGAYVSLSSTIKLLGKWIKVEQKGEGPGLRCSHGIAQVGNKIYSFGGEFTPNQPIDKHLYVFDLETRTWSISPATGDVPHLSCLGVRMVSVGSTLYVFGGRDASRQYNGFYSFDTTTNEWKLLTPVEEGPTPRSFHSMAADEENVYVFGGVSATARLNTLDSYNIVDKKWFHCSTPGDSLTARGGAGLEVVQGKVWVVYGFNGCEVDDVHYYDPVQDKWTQVETFGVRPSERSVFASAAIGKHIVIFGGEIAMDPLAHVGPGQLTDGTFALDTETLQWERLDKFGGEEETPSSRGWTASTTATIDGKKGLVMHGGKAPTNDRFDDLFFYGIDSA | not failed |
| MAQKMTGALVFDERTDRYDIRFDLNSYYGGLHCGECFDVFVRGKWKPTRIEYGDNWYLVGIRAEDLNGLRVRILEHHHHHH | not failed |
| MAQKTLLIITDGIGYRKDSDHNAFFHAKKPTYDLMFKTLPYSLIDTHGLSVGLPKGQMGNSEVGHMCIGAGRVLYQDLVKISLSLQNDELKNNPAFLNTIQKSPVVHLMGLMSDGGVHSHIEHFIALALECEKSHKKVCLHLITDGRDVAPKSALTYLKQMQNICNESIQIATISGRFYAMDRDKRFERIELAYHSLMGLNHTPLSPSEYIQSQYDKNITDEFIMPACFKNYCGMQDDESFIFINFRNDRAREIVSALGQKQFSGFKRQVFKKLHIATMTPYDNTFPYPVLFPKESVQNTLAEVVSQHNLTQSHIAETEKYAHVTFFINGGVETPFKNENRVLIQSPKVTTYDLKPEMSAKEVTLAVLEQMKLGTDLIIVNFANGDMVGHTGNFEASVKAVEAVDACLGEILSLAKKLDYAMLLTSDHGNCERMKDENQNPLTNHTAGSVYCFVLGDGVKSIKNGALNNIASSVLKLMGLKAPATMDEPLF | failed |
| MAQPDREARPQFSHPTRQILTMLIVIGLSGFGVFVAMPRVLPVFQANPYLNGFILLVFIIGVLACFWQVVQLIGSVRWIEDFAAGQEREDTTPPSMLAPLASLLRSRAARMQISSSSTRSILDSVAERIEEEREITRYITNVLIYLGLLGTFFGLATTIPAVVDTIRSLNPQEGEEGLAVFNRLMTGLEAQLGGMGTAFGSSLLGLAGSLIVGLLELFTGHGQNRFYRELEEWLSTITRVGFSSGEEGHSESGAIAGVIDTMVEQMDALHAMFAASEEGRAEISGKLGALVETIAEMNQRQAETEDVTAALDRVAAGQETLIDFLREQGAHDGIDAESRMRLRSIDVQMLRILEEISAGRQESMAELRKDIELLAKALSVPRRPLRGVTRDEG | failed |
| MAQPLFSLDGQSLITPQSVSNKFPSPHNHNETDRLRIAEAEFAVVINIAVQRFAAGKNLPDAVRWLIGQLHDIRQKFGAAVWQKIIPIIQAHPSATILQQCPFTRWSFEKPRGYSGDAGLIDFIYGHPAVAEEVARSTPLGLNIFEYTINAPGPVAVRERRDTLTRYVDETAVRTGSDTEILAIAAGHLREAEASKALAEGRLKRWVALDQDPESIGSISSQFHGTSVQPINGSVRGLLARKHQIGTFDLIYAAGLYDYLTDKVAIRLTQICMEMLKPGGVFLFANFSDEMADDGYMESYMNWELLQRSEADMWRITNAGATQNAVDKTVWFGANRNIIYSTIRKRS | failed |
| MAQQFKDYFSEKSDVYRSYRPGYPTELFAWLAGLPARRDAALDCGCGTGQASVALAEHFARVYAVDPSAGQIKSATPHKRVEYRVAPAEETGLPDASVDLVIAAQALHWFDFSRFYAEVRRVARGGAVFAAFTYGLLAIDDEIDRIIGRFYRDVIGPYWPPERAHVDAGYRTLPFPFAEIETPTFAMKAEWDLGHLMGYFETWSAVKEYRRLRGDDPLELVAGDLATAWGDPALVRQVSWPLVLRAGRIE | failed |
| MAQQNAEHIADWRGQSGERWAAYQARLDAMMAPFGQAAIEAAAPTTGERVLDVGCGAGASSRDLAARVGAEGHVLGVDISEPLIERARALAPQDMSVVFRVTDASRAELPDGAFDILFSRFGVMFFNDPTGAFAHMRRALKPGGRAAFVCWRGVTENDWMRLPMGAMKGILPSMTPPGPEAPGPFSFGDQERVERILTKAGFTDIAIEPFDASVSFGEGATRDAALDDAVNMTLEVGPLSRVLADQPDDIRDRASVAVRAALSGCPGERSVMINGATWIVTARNPAS | failed |
| MAQQQGMDSALFERRLRPVYDNLEVGNNRKALQESEKLLRKHPNLLCARALKGLSLLRLGRYDESHGCLQTVAEEKPTDDSTLQVLSFCYREMEQLDKIVELYQHAVKQNPGNEELLAHLFISHVRVEDYKAQQAVALQLYKAQPKNAYYFWSVISVVFQGIRGPESALPEKRKIYLGLAQRMVDKHIKEGKMETEQEAFLYLHILKLQNKYQEAWEFLTGELCAKLYPGAPVSMKFELLKELGNWRELNELLQQLLDADRDRWDFYKEYIQSSFELLKLTPQGVENGDKDSLARCQEFLQRIIDSSERKKRGPYLARLELHQRMRAEQLPAEKLIGDFDEMVIEYFRLFGDKSCCTHDIALFLPSISMNQRQALASKLLLESGVTSTSLPKNKEQLQKHLCALQISRMCGSHMDLPADHLLAFYTALKLHYEHGRTTFGKKLLATEMGPSDAYALLAANVMYDLSRRENKSDHLFEALCLLQYVLRNSTSNFHVKLLSLKIYHLFGCQVGAQEMYEYLDIKQIQLDSMGYVHCQLLALGGRFSGNRNVYDATLKFFTNSYKERLEYIALTYRFCTFSKMEEFMNFKERLTNSLQYVACSVEAQICDLVSCYGNITQNLSAYVAMSIEPAEDRIAWHELSDNRDLGAIIRWDPLHEVDAAEERRESFDQEVEVLQVRSLMLRLFASFIDLYHGAGLKDSPAGAETATLELLRESWTGLFQRLRVMNYKPLAQKFLVNLLPTRLHLLLDMPYERFFDDLAQLVLDLQSGSAKLAEQCKRVGDNVIATMELCVQTINESNESNGIDGLWKRRGQQQKVAASLEMLSLYAFLLSVLNDKLQVSSKTKTKKKPVENKVDGPQPISEKERSQMLQELMRQLKHKFEACDTAIRSWKAPVLPRDLSSFMSDMSLKPEVEATLIGDVSATFKDSHELMVTELRNLLKDKIRMVAK | failed |
| MAQQTPLYEQHTLCGARMVDFHGWMMPLHYGSQIDEHHAVRTDAGMFDVSHMTIVDLRGSRTREFLRYLLANDVAKLTKSGKALYSGMLNASGGVIDDLIVYYFTEDFFRLVVNSATREKDLSWITQHAEPFGIEITVRDDLSMIAVQGPNAQAKAATLFNDAQRQAVEGMKPFFGVQAGDLFIATTGYTGEAGYEIALPNEKAADFWRALVEAGVKPCGLGARDTLRLEAGMNLYGQEMDETISPLAANMGWTIAWEPADRDFIGREALEVQREHGTEKLVGLVMTEKGVLRNELPVRFTDAQGNQHEGIITSGTFSPTLGYSIALARVPEGIGETAIVQIRNREMPVKVTKPVFVRNGKAVA | not failed |
| MAQRSILVGQIWHEGHSFNPILTREKDFLFLRGEAVLEEARASSTALSGIVKTAEALGYRCVPSISARARPGGAIEQKVFDNIVDEFVQAARMQDFDAICLDLHGATLAEHTLDTEGYLLSRLREVVGNDIMISLALDLHAYLTPQMVEQATIITSFRTTPHADIEETGVRAMTLLDSLSNETRPPRAIYSLIPFLTRGNDETWSGPLAEIGAAADRWRARSDVVDLSIFNVHPFLDVPGYGQVVLAYDNGSGAAIDACRDLSDMLWKARDEFQEQLMSVDKALEIARTSRQLLALGDQGDRVMGAGPGDSPEIARVALEHFPGLKVAVPVYDPQAVRTAREAGENATVRMAVGGAFTHSVAPLERDWTVRKLCRARFTNIGPYMAGTEADFGDAAVLTCDAVTVIVTTMAPNVHDPAFYEAVGVPLASQQAVVARAANHYKLSFADIARTITVDTPGLTAFKPHQFPFTQARPFYPLDIVQWSFAPLECNKVG | not failed |
| MAQTQGTRRKVCYYYDGDVGNYYYGQGHPMKPHRIRMTHNLLLNYGLYRKMEIYRPHKANAEEMTKYHSDDYIKFLRSIRPDNMSEYSKQMQRFNVGEDCPVFDGLFEFCQLSTGGSVASAVKLNKQQTDIAVNWAGGLHHAKKSEASGFCYVNDIVLAILELLKYHQRVLYIDIDIHHGDGVEEAFYTTDRVMTVSFHKYGEYFPGTGDLRDIGAGKGKYYAVNYPLRDGIDDESYEAIFKPVMSKVMEMFQPSAVVLQCGSDSLSGDRLGCFNLTIKGHAKCVEFVKSFNLPMLMLGGGGYTIRNVARCWTYETAVALDTEIPNELPYNDYFEYFGPDFKLHISPSNMTNQNTNEYLEKIKQRLFENLRMLPH | failed |
| MAQVPAGKNRSGQLSKQTGDAWENQARRWLEGQGLRFIAANARERGGEIDLIMRDGTVTVFIEVRYRRSARYGDAAASVTPQKQQRLLKAARLWLCRQ | failed |
| MAQYQALYRQWRPRTFAEVVGQEHITRTLRNALRTGRLVHAYLFCGPRGTGKTSTAKILARAINCLAPREGEPCNECANCRRILAGNSLDVLEMDAASNRGIDEIRNLIEKIPLGPVEGRYKVYIIDEVHMLTQEAFNALLKTLEEPPAHAVFILATTEPRKVLPTILSRCQRFDFHPLTVQAIAGRLQEVAAANGVEIEPGALSLLSRKAAGGLRDALSLLDQILASGTRGPVTAGQVAVTLGTARLDTLLALTDALATGDGAGVLNLVDKALASGIEPRRLLEDLLDHTRNLLLLKVDPGAGSLTGLLPEEVEQVAAQARQFDHHRLLDLMERLQQGGAALRRSNQPRVILEMTLAGFLVAPGPSLEGLARRVAELEARLAALEGSAPSRTREKVATRNQGEGGRPPVAPGSRADAGGQERGNSGPLEAPGAGSPAGRARVINRSREFPQAAGRDRAGLAGPETATGLEPGSPASPGLELAVVQEHWPEVLAAARRESIQLQAFLREGEPVAIDGDTLTLAVKADFHRGMLEQPGNRQKVEKALAAVFGRPLKVVITSGKPSPPGDTGDTLTRLVNFFGADKVEIKD | failed |
| MARGPPRALASTRSPSTHMTAISNPDSEDLHIIIAGAGRVGHRTARVLRDQGHEAYLIDKDPDIVEDARQALGATVIEGDATDPKVLAQADPERADVLAALTETGATNFAICAVVKHLTGDIRTVARIERPDQLDEEGTFFDRVVYPERAGAKSAVNQILTGDTRVFEDVGGDLDVAEVQVAPEAPAAGKQLDAAALPDQSHVVFDVTNDEVPQPSTELVPGHRYLIAAAPGVAREARRRLVG | failed |
| MARGREAVTLLLVGWGYAPGMQTLEALDAVRRADVVYVESYTMPGSSWLYKSVVEAAGEARVVEASRRDLEERSREIVSRALDAVVAVVTAGDPMVATTHSSLAAEALEAGVAVRYIPGVSGVQAARGATMLSFYRFGGTVTLPGPWRGVTPISVARRIYLNLCAGLHTTALLDVDERGVQLSPGQGVSLLLEADREYAREAGAPALLARLPSVLVEAGAGGGHRVLYWSSLERLSTADVEGGVYSIVIPARLSGVEEWLLAAASGQRRPLEYDRSVYETVEENCKKGVYMEPV | not failed |
| MARLIGFKMAEVHRGRIVMQLDPDQSLENTAGLLHGAIAAALLDTAMGCAISTQQPAGQGSVTMDLKLSYLRPLSVRSGTIVAEGRVVKLGRQSSYTEGFVYDGAGKLAVHATATFAMLGAGPLEHHHHHH | failed |
